Experimental data published in patent publication US20210070876A1.
Each block holds one binder with its values, some of them ahead of it.

Columns and labels:
[1] = biological target: T1, His-tagged human CD73 ECD (human) (UniProt P21589); assay: SPR, mAb captured, His-tagged CD73 ECD injected
T1 sequence: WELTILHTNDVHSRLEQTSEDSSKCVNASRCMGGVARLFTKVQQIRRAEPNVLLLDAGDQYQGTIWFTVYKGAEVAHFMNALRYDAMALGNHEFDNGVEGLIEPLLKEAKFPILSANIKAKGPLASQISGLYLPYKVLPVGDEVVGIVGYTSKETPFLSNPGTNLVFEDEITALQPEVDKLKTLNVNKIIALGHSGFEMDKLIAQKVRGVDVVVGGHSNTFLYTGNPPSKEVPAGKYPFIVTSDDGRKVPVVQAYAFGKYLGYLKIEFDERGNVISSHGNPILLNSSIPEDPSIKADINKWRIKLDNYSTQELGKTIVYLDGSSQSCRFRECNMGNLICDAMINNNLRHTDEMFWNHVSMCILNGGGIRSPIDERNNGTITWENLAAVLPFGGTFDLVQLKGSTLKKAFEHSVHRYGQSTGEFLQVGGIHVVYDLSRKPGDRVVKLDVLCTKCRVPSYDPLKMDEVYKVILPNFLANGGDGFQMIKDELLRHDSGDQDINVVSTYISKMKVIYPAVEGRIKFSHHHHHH

[2] = biological target: His-tagged cynomolgus CD73 ECD (cynomolgus monkey (Macaca fascicularis)); assay: SPR, mAb captured, His-tagged CD73 ECD injected
[3] = biological target: T1, His-tagged human CD73 ECD (human); assay: SEC-MALS, mAb:CD73 0.1:1
[4] = biological target: T1, His-tagged human CD73 ECD (human); assay: SEC-MALS, mAb:CD73 1:1
[5] = biological target: T1, His-tagged human CD73 ECD (human); assay: SEC-MALS, mAb:CD73 0.5:1
[6] = biological target: cynomolgus CD73 ECD fused C-terminally to human IgG1 Fc (cynomolgus monkey (Macaca fascicularis); human); assay: SPR, Fc-tagged CD73 ECD captured, Fab injected
[7] = biological target: T2, human CD73 ECD fused C-terminally to human IgG1 Fc (human) (UniProt P21589); assay: SPR, Fc-tagged CD73 ECD captured, Fab injected
T2 sequence: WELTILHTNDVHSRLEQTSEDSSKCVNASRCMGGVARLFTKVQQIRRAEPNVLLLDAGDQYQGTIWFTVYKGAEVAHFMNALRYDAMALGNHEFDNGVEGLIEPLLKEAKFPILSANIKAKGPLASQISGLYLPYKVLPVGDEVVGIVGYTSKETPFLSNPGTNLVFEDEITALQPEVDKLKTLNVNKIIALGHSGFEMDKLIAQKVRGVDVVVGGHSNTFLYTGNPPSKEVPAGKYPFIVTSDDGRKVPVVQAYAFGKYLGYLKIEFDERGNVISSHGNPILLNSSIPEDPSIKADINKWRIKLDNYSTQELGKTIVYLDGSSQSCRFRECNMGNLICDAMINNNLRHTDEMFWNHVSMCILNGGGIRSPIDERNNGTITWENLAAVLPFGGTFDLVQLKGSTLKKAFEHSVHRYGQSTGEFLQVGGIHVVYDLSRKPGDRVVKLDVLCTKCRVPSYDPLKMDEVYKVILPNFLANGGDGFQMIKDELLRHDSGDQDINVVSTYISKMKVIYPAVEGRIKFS

[8] = biological target: human CD73 expressed on cells (human) (UniProt P21589); assay: cell-based or functional assay; conditions: scale: % viable cells compared to untreated cells

Kd [1]: 0.1 nM | koff [1]: 5.6e-06 s⁻¹ | kon [1]: 57000 M⁻¹ s⁻¹ | Kd [2]: 0.14 nM | koff [2]: 1.3e-05 s⁻¹ | kon [2]: 84000 M⁻¹ s⁻¹ | molecular mass of complex, Peak 2 (MW, kDa) [3]: 265 kDa | molecular mass of complex, Peak 3 (MW, kDa) [3]: 704 kDa | molecular mass of complex, Peak 4 (MW, kDa) [3]: 11800 kDa | molecular mass of complex, Peak 2 (MW, kDa) [4]: 270 kDa | molecular mass of complex, Peak 3 (MW, kDa) [4]: 511 kDa | molecular mass of complex, Peak 4 (MW, kDa) [4]: 802 kDa | molecular mass of complex, Peak 2 (MW, kDa) [5]: 277 kDa | molecular mass of complex, Peak 3 (MW, kDa) [5]: 566 kDa | molecular mass of complex, Peak 4 (MW, kDa) [5]: 3370 kDa
B1: 11E1 analogue (Innate Pharma) (antibody, from another filing, IgG1, V domains shown)
VH: EIQLQQSGPELVKPGASVKVSCKASGYAFTSYNMYWVKQSHGKSLEWIGYIDPYNGGTSYNQKFKGKATLTVDKSSSTAYMHLNSLTSEDSAVYYCARGYGNYKAWFAYWGQGTLVTVSA
VL: DAVMTQTPKFLLVSAGDRVTITCKASQSVTNDVAWYQQKPGQSPKLLIYYASNRYTGVPDRFTGSGYGTDFTFTISTVQAEDLAVYFCQQDYSSLTFGAGTKLELK

Kd [6]: 8.7 nM | koff [6]: 0.0028 s⁻¹ | kon [6]: 320000 M⁻¹ s⁻¹ | Kd [7]: 9.8 nM | koff [7]: 0.0028 s⁻¹ | kon [7]: 290000 M⁻¹ s⁻¹
B2: 11E1 analogue Fab fragment (Fab, from another filing, V domains shown)
VH: B1 VH
VL: B1 VL

Kd [1]: 0.02 nM | koff [1]: 2.5e-06 s⁻¹ | kon [1]: 110000 M⁻¹ s⁻¹ | Kd [2]: 0.06 nM | koff [2]: 6.6e-06 s⁻¹ | kon [2]: 140000 M⁻¹ s⁻¹ | molecular mass of complex, Peak 2 (MW, kDa) [3]: 194 kDa | molecular mass of complex, Peak 3 (MW, kDa) [3]: 432 kDa | molecular mass of complex, Peak 4 (MW, kDa) [3]: 821 kDa | molecular mass of complex, Peak 2 (MW, kDa) [4]: 389 kDa | molecular mass of complex, Peak 3 (MW, kDa) [4]: 682 kDa | molecular mass of complex, Peak 4 (MW, kDa) [4]: 1040 kDa | molecular mass of complex, Peak 2 (MW, kDa) [5]: 870 kDa | molecular mass of complex, Peak 3 (MW, kDa) [5]: 559 kDa | molecular mass of complex, Peak 4 (MW, kDa) [5]: 1010 kDa
B3: oleclumab analogue (MEDI9447, Medimmune) (antibody, INN chains, looked up, V domains shown)
VH: EVQLLESGGGLVQPGGSLRLSCAASGFTFSSYAYSWVRQAPGKGLEWVSAISGSGGRTYYADSVKGRFTISRDNSKNTLYLQMNSLRAEDTAVYYCARLGYGRVDEWGRGTLVTVSS
VL: QSVLTQPPSASGTPGQRVTISCSGSLSNIGRNPVNWYQQLPGTAPKLLIYLDNLRLSGVPDRFSGSKSGTSASLAISGLQSEDEADYYCATWDDSHPGWTFGGGTKLTVL
modifications: IgG1-TM
viable MDA-MB-468 cells in the presence of 300 µM AMP (WST-1) [8]: 70 to 80

Kd [6]: 0.07 nM | koff [6]: 4.3e-05 s⁻¹ | kon [6]: 580000 M⁻¹ s⁻¹ | Kd [7]: 0.06 nM | koff [7]: 3.4e-05 s⁻¹ | kon [7]: 560000 M⁻¹ s⁻¹
B4: oleclumab analogue Fab fragment (Fab, INN chains, looked up, V domains shown)
VH: B3 VH
VL: B3 VL
modifications: Fab

Kd [1]: 0.02 nM | koff [1]: 2.4e-06 s⁻¹ | kon [1]: 170000 M⁻¹ s⁻¹ | Kd [2]: 0.33 nM | koff [2]: 1.4e-05 s⁻¹ | kon [2]: 28000 M⁻¹ s⁻¹ | molecular mass of complex, Peak 2 (MW, kDa) [3]: 121 kDa | molecular mass of complex, Peak 3 (MW, kDa) [3]: 236 kDa | molecular mass of complex, Peak 4 (MW, kDa) [3]: 339 kDa | molecular mass of complex, Peak 2 (MW, kDa) [4]: 148 kDa | molecular mass of complex, Peak 3 (MW, kDa) [4]: 246 kDa | molecular mass of complex, Peak 4 (MW, kDa) [4]: 363 kDa | molecular mass of complex, Peak 2 (MW, kDa) [5]: 143 kDa | molecular mass of complex, Peak 3 (MW, kDa) [5]: 245 kDa | molecular mass of complex, Peak 4 (MW, kDa) [5]: 349 kDa
B5: CPX006 analogue (Corvus) (antibody, from another filing, IgG1, V domains shown)
VH: QVQLVQSGAEVEKPGASVKVSCKASGYTFTSYWITWVRQAPGQGLEWMGDIYPGSGNTNYNEKFKTRVTITADKSTSTAYMELSSLRSEDTAVYYCAKEGGLTTEDYALDYWGQGTLVTVSS
VL: EIVLTQSPATLSLSPGERATLSCRASKNVSTSGYSYMHWYQQKPGQAPRLLIYLASNLESGIPPRFSGSGYGTDFTLTINNIESEDAAYYFCQHSRELPFTFGQGTKVEIKR

Kd [6]: 71.6 nM | koff [6]: 0.00048 s⁻¹ | kon [6]: 6700 M⁻¹ s⁻¹ | Kd [7]: 80.3 nM | koff [7]: 0.00053 s⁻¹ | kon [7]: 6600 M⁻¹ s⁻¹
B6: CPX006 analogue Fab fragment (Fab, from another filing, V domains shown)
VH: B5 VH
VL: B5 VL
